Measured values as given in publication PMC3963918, “CCHCR1 Interacts Specifically with the E2 Protein of Human Papillomavirus Type 16 on a Surface Overlapping BRD4 Binding” (PLoS ONE, 2014).

Columns and labels:
[1] = molecular target: T1, HPV16 E2 protein fused to Gaussia luciferase fragment GL2 (human papillomavirus type 16, UniProt P03120 1-365); test: split reporter (BiFC, NanoBiT); conditions: partners not purified
T1 construct: source: 293 T cells, transfected (pSPICA-N2), in lysate
T1 sequence: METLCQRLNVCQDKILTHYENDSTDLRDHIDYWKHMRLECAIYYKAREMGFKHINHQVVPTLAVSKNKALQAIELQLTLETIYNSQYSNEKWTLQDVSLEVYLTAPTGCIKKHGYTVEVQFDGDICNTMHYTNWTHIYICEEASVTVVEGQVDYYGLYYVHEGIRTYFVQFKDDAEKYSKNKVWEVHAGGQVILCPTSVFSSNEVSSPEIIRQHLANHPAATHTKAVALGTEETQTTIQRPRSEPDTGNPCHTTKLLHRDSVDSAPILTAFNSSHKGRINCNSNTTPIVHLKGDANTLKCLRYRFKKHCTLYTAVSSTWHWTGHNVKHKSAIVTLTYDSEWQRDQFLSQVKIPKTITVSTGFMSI

[2] = molecular target: T1, HPV16 E2 protein fused to Gaussia …; test: split reporter (BiFC, NanoBiT); GPCA competition: GL1 and GL2 partners plus a 3XFlag-tagged challenging protein (0.5 ug of each plasmid) in 293 T cells, 12-well plates, harvested 40 h after transfection; NLR relative to empty plasmid; conditions: partners not purified

Row | Binder | NLR (Normalized Luminescence Ratio) [1] | fold decrease of the NLR of HPV16 E2 with BRD4 in the presence of CCHCR1 [2]
1 | CCHCR1 (Coiled-Coil alpha HeliCal Rod protein 1), polypeptide from amino acid 137 to the stop codon, fused to Gaussia luciferase fragment GL1 (domain or fragment, also called Pg8; SBP) KAGRAEAEGLRAALAGAEVVRKNLEEGSQRELEEVQRLHQEQLSSLTQAHEEALSSLTSKAEGLEKSLSSLETRRAGEAKELAEAQREAELLRKQLSKTQEDLEAQVTLVENLRKYVGEQVPSEVHSQTWELERQKLLETMQHLQEDRDSLHATAELLQVRVQSLTHILALQEEELTRKVQPSDSLEPEFTRKCQSLLNRWREKVFALMVQLKAQELEHSDSVKQLKGQVASLQEKVTSQSQEQAILQRSLQDKAAEVEVERMGAKGLQLELSRAQEARRRWQQQTASAEEQLRLVVNAVSSSQIWLETTMAKVEGAAAQLPSLNNRLSYAVRKVHTIRGLIARKLALAQLRQESCPLPPPVTDVSLELQQLREERNRLDAELQLSARLIQQEVGRAREQGEAERQQLSKVAQQLEQELQQTQESLASLGLQLEVARQGQQESTEEAASLRQELTQQQELYGQALQEKVAEVETRLREQLSDTERRLNEARREHAKAVVSLRQIQRRAAQEKERSQELRRLQEEARKEEGQRLARRLQELERDKNLMLATLQQEGLLSRYKQQRLLTVLPSLLDKKKSVVSSPRPPECSASAPVAAAVPTRESIKGSLSVLLDDLQDLSEAISKEEAVCQGDNLDRCSSSNPQMSS | ~250 | –
2 | 3XFLAG-tagged CCHCR1, shorter E2-interacting isoform (amino acid 137 to the stop codon) (domain or fragment, also called Flag-CCHCR1; 3XFLAG CCHCR1; source: 293 T cells, transfected (pCiNeo-3XF), in lysate) KAGRAEAEGLRAALAGAEVVRKNLEEGSQRELEEVQRLHQEQLSSLTQAHEEALSSLTSKAEGLEKSLSSLETRRAGEAKELAEAQREAELLRKQLSKTQEDLEAQVTLVENLRKYVGEQVPSEVHSQTWELERQKLLETMQHLQEDRDSLHATAELLQVRVQSLTHILALQEEELTRKVQPSDSLEPEFTRKCQSLLNRWREKVFALMVQLKAQELEHSDSVKQLKGQVASLQEKVTSQSQEQAILQRSLQDKAAEVEVERMGAKGLQLELSRAQEARRRWQQQTASAEEQLRLVVNAVSSSQIWLETTMAKVEGAAAQLPSLNNRLSYAVRKVHTIRGLIARKLALAQLRQESCPLPPPVTDVSLELQQLREERNRLDAELQLSARLIQQEVGRAREQGEAERQQLSKVAQQLEQELQQTQESLASLGLQLEVARQGQQESTEEAASLRQELTQQQELYGQALQEKVAEVETRLREQLSDTERRLNEARREHAKAVVSLRQIQRRAAQEKERSQELRRLQEEARKEEGQRLARRLQELERDKNLMLATLQQEGLLSRYKQQRLLTVLPSLLDKKKSVVSSPRPPECSASAPVAAAVPTRESIKGSLSVLLDDLQDLSEAISKEEAVCQGDNLDRCSSSNPQMSS | – | 5 fold
